Columns and labels:
Experiment in all cases: other fluorescence titration; single-molecule FRET on freely diffusing ClpB hexamers (1:100 labeled:unlabeled, ~50 pM labeled, ~5 nM total) with increasing concentrations of unlabeled κ-casein; ratio of H2MM-derived state 1 population with and without κ-casein fitted to a simple binding isotherm; 25 mM HEPES, 25 mM KCl, 10 mM MgCl2, 2 mM ATP, 0.01% Tween 20, pH 8, 22°C
[1] = target: ClpB PL1 construct S236C-S359C (wt), hexamer with one labeled protomer (Thermus thermophilus) (UniProt Q9RA63)
[2] = target: ClpB PL2 BB construct A281C-S359C with E271A/E668A, hexamer with one labeled protomer (Thermus thermophilus) (UniProt Q9RA63)
[3] = target: ClpB PL3 construct S359C-Y646C (wt), hexamer with one labeled protomer (Thermus thermophilus) (UniProt Q9RA63)
[4] = target: ClpB PL2 construct A281C-S359C (wt), hexamer with one labeled protomer (Thermus thermophilus) (UniProt Q9RA63)

Kd [1]: 2900 nM
Kd [2]: 300 nM
Kd [3]: 900 nM
Kd [4]: 11.3 µM
Substance: κ-casein (from UniProt P02668 22-190) (natural protein)

From publication PMC10870172
